In patent publication US20260151494A1 (ARO BIOTHERAPEUTICS, published 2026):
Numbering of substitutions follows the chain as printed.

B1: CD71-binding FN3 domain SEQ ID NO: 235 (designed binder)
chain: MSLPAPKNLVVSRVTEDSARLSWTAPDAAFDSFEIVYAEPVRFGEAIVLTVPGSERSYDLTGLKPGTEYWVQIGGVKGGNWSAPLSAIFTT
B2: CD71-binding FN3 domain SEQ ID NO: 239 (designed binder)
chain: B1 chain with A38Q, P40N, V41S, R42A, F43Y
B3: CD71-binding FN3 domain SEQ ID NO: 236 (designed binder)
chain: B1 chain with A25E, V36G, A38F, P40N, V41L, R42Y, F43L
B4: CD71-binding FN3 domain SEQ ID NO: 256 (designed binder)
chain: B1 chain with A5V, V36G, A38F, P40N, V41L, R42Y, F43L
B5: CD71-binding FN3 domain SEQ ID NO: 249 (designed binder)
chain: B1 chain with V36G, A38W, P40N, V41A, R42Y, F43R, W70V, Q72F, N80V, A83V
B6: CD71-binding FN3 domain SEQ ID NO: 238 (designed binder)
chain: B1 chain with V36G, A38F, P40N, V41D, R42Y, W70V, Q72F, N80K
B7: CD71-binding FN3 domain SEQ ID NO: 248 (designed binder)
chain: MSLPAPKNLVVSRVTEDSARLSWTAPDAAFDSFEIGYFENLYLGEAIVLTVPGSERSYDLTGLKPGTEYVVFIGGVKGGDFSPPLSAIFTT
B8: CD71-binding FN3 domain SEQ ID NO: 250 (designed binder)
chain: B7 chain with V70W, F72Q, K77N, D80N, F81W, P83A
B9: CD71-binding FN3 domain SEQ ID NO: 246 (designed binder)
chain: MSLPAPKNLVVSRVTEDSARLSWTAPDAAFDSFEIAYQELSLWGEAIVLTVPGSERSYDLTGLKPGTEYYVHIGGVKGGIWSSPLSAYFTT
B10: CD71-binding FN3 domain SEQ ID NO: 242 (designed binder)
chain: B7 chain with E68K, V70W, F72Q, D80N, F81W, P83A
B11: CD71-binding FN3 domain SEQ ID NO: 251 (designed binder)
chain: B7 chain with V70W, F72Q, D80N, F81W, P83A, S86V, I88T
B12: CD71-binding FN3 domain SEQ ID NO: 255 (designed binder)
chain: B7 chain with A25T, G36A, N40I, L41A, Y42W, V70W, F72Q, D80A, F81Y, P83T
B13: CD71-binding FN3 domain SEQ ID NO: 244 (designed binder)
chain: B7 chain with D80E, F81Y, P83I
B14: CD71-binding FN3 domain SEQ ID NO: 247 (designed binder)
chain: B7 chain with V70W, F72Q, D80E, F81W, P83A
B15: CD71-binding FN3 domain SEQ ID NO: 237 (designed binder)
chain: B1 chain with V36A, A38F, P40R, V41T, R42W, N80D, A83K
B16: CD71-binding FN3 domain SEQ ID NO: 268 (designed binder)
chain: B7 chain with L60P, V70W, F72Q, D80N, F81W, P83A
B17: CD71-binding FN3 domain SEQ ID NO: 257 (designed binder)
chain: B7 chain with R13H, F38W, L41A, L43K, D80V, F81W, P83V
B18: CD71-binding FN3 domain SEQ ID NO: 254 (designed binder)
chain: B7 chain with T50W, V70W, F72Q, D80N, F81W, P83A
B19: CD71-binding FN3 domain SEQ ID NO: 263 (designed binder)
chain: B7 chain with V70W, F72Q, D80N, F81W, P83S
B20: CD71-binding FN3 domain of SEQ ID NO: 162 (designed binder)
chain: MSLPAPKNLVVSRVTEDSARLSWTALDAAFDSFEISYWEHTFNGEAIILFVPGSERSYDLTGLKPGTEYYVTIGGVKGGAWSPPLWAEFTT
B21: CD71-binding FN3 domain of SEQ ID NO: 143 (designed binder)
chain: MSLPAPKNLVVSRVTEDSARLSWTAPDAAFDSFAIQYVEVIGSGEAIELIVPGSERSYDLTGLKPGTEYHVYIDGVKGGKDSKPLYAGFTT
B22: CD71-binding FN3 domain of SEQ ID NO: 198 (designed binder)
chain: MSLPAPKNLVVSRVTEDSARLSWTAPDAAFDSFLIGYTEYSVYGEAIVLTVPGSERSYDLTGLKPGTEYTVWIMGVKGGIKSTPLSAISTT
B23: CD71-binding FN3 domain of SEQ ID NO: 145 (designed binder)
chain: MSLPAPKNLVVSRVTEDSARLSWTAPDAAFDSFFIGYLEPQPPGEAIALLVPGSERSYDLTGLKPGTEYNVTIQGVKGGFPSHPLSAKFTT
B24: CD71-binding FN3 domain of SEQ ID NO: 147 (designed binder)
chain: B23 chain with A48E, L50F, H83G, S86I, K88S
B25: CD71-binding FN3 domain of SEQ ID NO: 180 (designed binder)
chain: B23 chain with A48S, L50Y, H83E, S86I, K88N
B26: CD71-binding FN3 domain of SEQ ID NO: 167 (designed binder)
chain: B23 chain with A48V, L50T, H83V, K88A
B27: CD71-binding FN3 domain of SEQ ID NO: 161 (designed binder)
chain: B23 chain with A48V, L50T, H83E, S86V, K88H
B28: CD71-binding FN3 domain of SEQ ID NO: 163 (designed binder)
chain: B23 chain with A46V, A48H, L50Y, N70V, T72F, Q74G, F80V, P81W, H83V, K88I
B29: CD71-binding FN3 domain of SEQ ID NO: 168 (designed binder)
chain: B23 chain with F34I, G44D, L50Y, H83L, S86V, K88T
B30: CD71-binding FN3 domain of SEQ ID NO: 197 (designed binder)
chain: B23 chain with A48S, H83E, S86H, K88I
B31: CD71-binding FN3 domain of SEQ ID NO: 179 (designed binder)
chain: B23 chain with A48T, S86V, K88T, F89T
B32: CD71-binding FN3 domain of SEQ ID NO: 178 (designed binder)
chain: MGSLPAPKNLVVSRVTEDSARLSWTAPDAAFDSFFIGYLEPQPPGEAISLYVPGSERSYDLTGLKPGTEYNVTIQGVKGGFPSDPLVAHFTT
B33: CD71-binding FN3 domain of SEQ ID NO: 204 (designed binder)
chain: MSLPAPKNLVVSRVTEDSARLSWTAPDAAFDSFLIQYDEWPTYGEAIVLTVPGSERSYDLTGLKPGTEYLVEIVGVKGGNLSGPLSAIFTT
B34: CD71-binding FN3 domain of SEQ ID NO: 218 (designed binder)
chain: MSLPAPKNLVVSRVTEDSARLSWTAPDAAFDSFEIAYHEDDFYGEAIALLVPGSERSYDLTGLKPGTEYIVHIGGVKGGFFSSPLYAWFTT

How the values were obtained:
[1] = target: T1, human CD71 extracellular domain (CD71-ECD) (human, UniProt P02786 89-760); experiment: primary ELISA; further: test concentration or dose not given here
T1 construct: also called hCD71; human CD71-ECD

[2] = target: T1, human CD71 extracellular domain …; experiment: primary ELISA, RLU ratio to HSA
[3] = target: T2, human CD71 extracellular domain (human, UniProt P02786 89-760); experiment: primary ELISA; further: test concentration or dose not given here
T2 construct: also called hCD71; human CD71-ECD

[4] = target: T3, apical domain of cynomolgus CD71 (cynomolgus, UniProt A0A2K5X958 189-383); experiment: primary ELISA; further: test concentration or dose not given here
T3 construct: domain: apical domain; also called Cyno apical domain

[5] = target: T2, human CD71 extracellular domain; experiment: primary ELISA, signal ratio to HSA
[6] = target: T3, apical domain of cynomolgus CD71; experiment: primary ELISA, signal ratio to HSA

T1 sequence (P02786 89-760): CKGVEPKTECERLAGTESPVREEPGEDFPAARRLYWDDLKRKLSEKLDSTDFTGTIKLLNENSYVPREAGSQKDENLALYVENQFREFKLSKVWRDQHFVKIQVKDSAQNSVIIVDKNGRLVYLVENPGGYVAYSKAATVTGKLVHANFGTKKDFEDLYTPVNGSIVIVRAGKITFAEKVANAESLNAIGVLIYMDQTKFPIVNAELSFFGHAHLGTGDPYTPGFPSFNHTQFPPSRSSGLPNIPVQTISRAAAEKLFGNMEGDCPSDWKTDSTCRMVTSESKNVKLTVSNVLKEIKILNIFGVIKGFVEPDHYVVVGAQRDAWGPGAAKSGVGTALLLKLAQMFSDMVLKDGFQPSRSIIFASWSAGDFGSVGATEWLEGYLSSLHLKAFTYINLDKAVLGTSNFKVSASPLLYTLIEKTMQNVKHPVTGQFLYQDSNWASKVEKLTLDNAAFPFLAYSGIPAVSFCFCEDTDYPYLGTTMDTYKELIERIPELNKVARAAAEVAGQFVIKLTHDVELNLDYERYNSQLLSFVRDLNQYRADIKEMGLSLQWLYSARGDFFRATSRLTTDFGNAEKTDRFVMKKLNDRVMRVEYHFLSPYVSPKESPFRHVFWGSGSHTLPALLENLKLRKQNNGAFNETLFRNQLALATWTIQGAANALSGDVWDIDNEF
T2 sequence (P02786 89-760): as above
T3 sequence (A0A2K5X958 entry or part of it): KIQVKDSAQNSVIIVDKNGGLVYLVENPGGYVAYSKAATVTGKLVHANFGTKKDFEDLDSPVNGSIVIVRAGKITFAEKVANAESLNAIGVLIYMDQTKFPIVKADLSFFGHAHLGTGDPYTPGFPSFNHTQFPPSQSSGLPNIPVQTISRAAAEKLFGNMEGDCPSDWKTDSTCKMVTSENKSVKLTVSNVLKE

| Binder | RLU [1] | hCD71:HSA [2] | RLU [3] | RLU [4] | hCD71:HSA [5] | Cyno apical domain:HSA [6] |
| --- | --- | --- | --- | --- | --- | --- |
| B1 | 3.8e+06 RLU | 376 |  |  |  |  |
| B2 | 1.88e+06 RLU | 154 |  |  |  |  |
| B3 | 3.29e+06 RLU | 101 |  |  |  |  |
| B4 | 2.39e+06 RLU | 193 |  |  |  |  |
| B5 | 3.02e+06 RLU | 350 |  |  |  |  |
| B6 | 3.86e+06 RLU | 576 |  |  |  |  |
| B7 | 3.49e+06 RLU | 375 |  |  |  |  |
| B8 | 3.41e+06 RLU | 140 |  |  |  |  |
| B9 | 3.68e+06 RLU | 362 |  |  |  |  |
| B10 | 1.61e+06 RLU | 165 |  |  |  |  |
| B11 | 4.09e+06 RLU | 724 |  |  |  |  |
| B12 | 3.73e+06 RLU | 90 |  |  |  |  |
| B13 | 3.25e+06 RLU | 392 |  |  |  |  |
| B14 | 2.89e+06 RLU | 442 |  |  |  |  |
| B15 | 3.98e+06 RLU | 535 |  |  |  |  |
| B16 | 4.1e+06 RLU | 133 |  |  |  |  |
| B17 | 2.83e+06 RLU | 378 |  |  |  |  |

| Binder | RLU [1] | hCD71:HSA [2] | RLU [3] | RLU [4] | hCD71:HSA [5] | Cyno apical domain:HSA [6] |
| --- | --- | --- | --- | --- | --- | --- |
| B18 | 3.29e+06 RLU | 289 |  |  |  |  |
| B19 | 3.32e+06 RLU | 208 |  |  |  |  |
| B20 |  |  | 4.46e+06 RLU | 5.49e+06 RLU | 240 | 296 |
| B21 |  |  | 2.91e+06 RLU | 4.41e+06 RLU | 94 | 142 |
| B22 |  |  | 3.62e+06 RLU | 4.95e+06 RLU | 84 | 116 |
| B23 |  |  | 5.14e+06 RLU | 6.36e+06 RLU | 158 | 196 |
| B24 |  |  | 5.56e+06 RLU | 6.67e+06 RLU | 173 | 208 |
| B25 |  |  | 6.68e+06 RLU | 6.09e+06 RLU | 275 | 251 |
| B26 |  |  | 4.72e+06 RLU | 5.93e+06 RLU | 66 | 83 |
| B27 |  |  | 5.73e+06 RLU | 6.09e+06 RLU | 13 | 14 |
| B28 |  |  | 1.5e+06 RLU | 5.14e+06 RLU | 65 | 225 |
| B29 |  |  | 3.94e+06 RLU | 4.84e+06 RLU | 32 | 39 |
| B30 |  |  | 3.4e+06 RLU | 6.23e+06 RLU | 36 | 66 |
| B31 |  |  | 4.11e+06 RLU | 4.71e+06 RLU | 39 | 45 |
| B32 |  |  | 7.01e+06 RLU | 5.99e+06 RLU | 319 | 272 |
| B33 |  |  | 4.09e+06 RLU | 5.46e+06 RLU | 243 | 325 |
| B34 |  |  | 2.42e+06 RLU | 4.72e+06 RLU | 77 | 149 |
